Results as given in article PMC4894720.

What was measured:
PPARδ;RXRα [1] = target: T1, PPARδ;RXRα (Homo sapiens;Homo sapiens?, UniProt Q03181;P19793 1-441;1-462, |); experiment: EMSA
PPARδ;RXRα [2] = target: T1, PPARδ;RXRα; experiment: competition

T1 sequence (Q03181 whole entry, stated change not applied, chain 1 of 2): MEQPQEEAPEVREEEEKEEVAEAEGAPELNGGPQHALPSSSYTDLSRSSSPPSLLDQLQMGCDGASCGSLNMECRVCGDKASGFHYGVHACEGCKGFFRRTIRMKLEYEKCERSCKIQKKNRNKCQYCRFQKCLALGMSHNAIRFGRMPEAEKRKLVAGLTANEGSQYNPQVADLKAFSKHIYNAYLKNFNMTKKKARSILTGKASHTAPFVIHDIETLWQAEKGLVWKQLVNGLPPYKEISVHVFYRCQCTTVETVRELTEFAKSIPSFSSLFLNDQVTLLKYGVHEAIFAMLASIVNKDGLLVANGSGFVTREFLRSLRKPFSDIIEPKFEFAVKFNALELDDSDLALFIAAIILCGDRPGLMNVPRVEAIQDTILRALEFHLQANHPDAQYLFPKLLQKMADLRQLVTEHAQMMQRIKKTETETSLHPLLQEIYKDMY
T1 sequence (P19793 whole entry, stated change not applied, chain 2 of 2): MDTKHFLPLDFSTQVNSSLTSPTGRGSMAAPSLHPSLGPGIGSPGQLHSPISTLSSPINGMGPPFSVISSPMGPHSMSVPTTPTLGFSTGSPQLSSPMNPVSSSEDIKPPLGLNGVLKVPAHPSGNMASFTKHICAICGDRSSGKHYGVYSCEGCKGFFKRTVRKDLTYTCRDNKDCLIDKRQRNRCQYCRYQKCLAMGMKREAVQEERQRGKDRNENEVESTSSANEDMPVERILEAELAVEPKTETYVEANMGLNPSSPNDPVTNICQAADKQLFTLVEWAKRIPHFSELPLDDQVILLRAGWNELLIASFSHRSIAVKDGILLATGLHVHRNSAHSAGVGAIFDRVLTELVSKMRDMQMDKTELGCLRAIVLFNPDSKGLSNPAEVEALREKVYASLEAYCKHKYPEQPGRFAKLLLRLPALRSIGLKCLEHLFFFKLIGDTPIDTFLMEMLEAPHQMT

B1: LDLR-PPRE(WT) biotin probe (dsDNA)
DNA 1: TCTCTGTGGCTTAGGGGTTCAAGTTCAACTGTGAAAGCCC
DNA 2: GGGCTTTCACAGTTGAACTTGAACCCCTAAGCCACAGAGA
B1: binds (PPARδ;RXRα [1]).

B2: LDLR-PPRE(WT) unlabeled competitor (dsDNA)
DNA 1: TCTCTGTGGCTTAGGGGTTCAAGTTCAACTGTGAAAGCCC
DNA 2: GGGCTTTCACAGTTGAACTTGAACCCCTAAGCCACAGAGA
B2: binds (PPARδ;RXRα [2]).
